Laboratory results published in patent publication US20240400675A1 (published 2024).
Substitutions are numbered along the chain they refer to. Values belong to the binder of their own block, whether it stands above or below them.

Key:
human CLDN6 [1] = target: T1, human CLDN6 (human, UniProt P56747 1-220); assay: flow cytometry on transfected cells
T1 construct: also called Claudin 6
T1 sequence: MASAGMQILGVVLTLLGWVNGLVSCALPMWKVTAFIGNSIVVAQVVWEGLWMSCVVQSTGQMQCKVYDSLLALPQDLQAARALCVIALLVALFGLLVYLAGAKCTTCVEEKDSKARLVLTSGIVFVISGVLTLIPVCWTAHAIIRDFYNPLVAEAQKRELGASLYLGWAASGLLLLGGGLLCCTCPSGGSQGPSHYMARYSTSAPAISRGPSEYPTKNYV

human CLDN6 [2] = target: T1, human CLDN6; assay: flow cytometry on HEK293E cells expressing CLDN6
Description: (§1) The following experiments used to screen CLDN6 binding domains were generally performed as follows. HEK293T or HEK293E cells were respectively stably or transiently transfected to express CLDN6, CLND9, or other targets of interest. 48 hours post transfection, cells were harvested and incubated with dilutions of the indicated test articles for 1 hour at 4° C. […] Binding was then assessed via flow cytometry.

human CLDN17 = target: T2, human CLDN17 (human, UniProt P56750 1-224); assay: flow cytometry on transfected cells
T2 construct: whole, on cells
T2 sequence (looked up): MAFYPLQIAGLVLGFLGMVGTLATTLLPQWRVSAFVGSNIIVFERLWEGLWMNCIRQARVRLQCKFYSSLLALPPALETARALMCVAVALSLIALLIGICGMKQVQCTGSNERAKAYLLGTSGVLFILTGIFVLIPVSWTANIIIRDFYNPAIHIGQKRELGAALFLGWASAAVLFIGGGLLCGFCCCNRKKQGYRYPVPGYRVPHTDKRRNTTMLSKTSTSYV

human CLDN5 = target: T3, human CLDN5 (human, UniProt O00501 1-218); assay: flow cytometry on transfected cells
T3 construct: whole, on cells
T3 sequence (looked up): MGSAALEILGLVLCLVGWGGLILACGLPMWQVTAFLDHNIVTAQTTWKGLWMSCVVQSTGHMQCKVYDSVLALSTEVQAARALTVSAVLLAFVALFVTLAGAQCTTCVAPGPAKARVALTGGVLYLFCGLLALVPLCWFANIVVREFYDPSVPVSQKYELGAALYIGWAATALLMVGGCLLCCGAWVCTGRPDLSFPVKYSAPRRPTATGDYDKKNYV

human CLDN8 = target: T4, human CLDN8 (human, UniProt P56748 1-225); assay: flow cytometry on transfected cells
T4 construct: whole, on cells
T4 sequence (looked up): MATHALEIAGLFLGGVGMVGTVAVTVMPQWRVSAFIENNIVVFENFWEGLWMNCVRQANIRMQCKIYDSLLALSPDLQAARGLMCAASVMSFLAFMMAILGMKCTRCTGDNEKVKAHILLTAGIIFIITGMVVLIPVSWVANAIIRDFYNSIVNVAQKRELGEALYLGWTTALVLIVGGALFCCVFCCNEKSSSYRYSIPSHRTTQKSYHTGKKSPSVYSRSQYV

CLDN6 I143V isotype = target: T5, CLDN6 I143V isotype (human, UniProt P56747 1-220); assay: flow cytometry on transfected HEK293E cells
T5 chain: T1 sequence with I143V
Description: as §1

mouse CLDN6 = target: T6, mouse CLDN6 (mouse, UniProt Q9Z262 1-219); assay: flow cytometry on transfected HEK293E cells
T6 construct: whole, on cells; also called murine CLDN6
T6 sequence (looked up): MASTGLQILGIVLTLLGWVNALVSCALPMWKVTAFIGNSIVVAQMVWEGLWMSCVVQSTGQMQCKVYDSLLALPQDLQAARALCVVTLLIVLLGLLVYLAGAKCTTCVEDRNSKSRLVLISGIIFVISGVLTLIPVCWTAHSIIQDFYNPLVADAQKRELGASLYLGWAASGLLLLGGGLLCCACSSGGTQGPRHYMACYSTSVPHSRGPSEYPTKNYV
Description: as §1

human CLDN6 [3] = target: T1, human CLDN6; assay: flow cytometry on transfected HEK293E cells
Description: as §1

B1: XENP34219, humanized C6-30 H1L2 bivalent mAb (antibody, human IgG1, kappa, V domains shown)
VH: QVQLVQSGAEVKKPGASVKVSCKTSGYTFTEYTMHWVRQAPGQSLEWMGGIDPNNGNTHYNQKFQGRVTITVDKSASTAYMELSSLRSEDTAVYYCARIYYFGRLYFDFWGAGTLVTVSS
VL: DIQMTQSPDSLAVSLGERATINCKASEDIYNRLAWYQQKPGQVPKLLISGATSLETGVPSRFSGSGSGKDYTLTISSLQAEDVAVYYCQQYWSSPLTFGGGTKVEIKR
notes: IgG1 with ablation variant; copies: 2 + 2
- binding result (human CLDN6 [1]): binds

B2: XENP37227 (C6-30_H1.9_L1.187), 2+1 Fab2-scFv-Fc bsAb with CD3 High-Int #1 (bispecific antibody)
heavy 1: QVQLVQSGAEVKKPGASVKVSCKTSGYTFTEYTMHWVRQAPGQSLEWMGGIDPNNANTHYNQKFQGRVTITVDKSASTAYMELSSLRSEDTAVYYCARIYYFGRLYFDFWGAGTLVTVSSASTKGPSVFPLAPSSKSTSGGTAALGCLVKDYFPEPVTVSWNSGALTSGVHTFPAVLQSSGLYSLSSVVTVPSSSLGTQTYICNVNHKPSDTKVDKKVEPKSCDKTHTCPPCPAPPVAGPSVFLFPPKPKDTLMISRTPEVTCVVVDVKHEDPEVKFNWYVDGVEVHNAKTKPREEEYNSTYRVVSVLTVLHQDWLNGKEYKCKVSNKALPAPIEKTISKAKGQPREPQVYTLPPSREEMTKNQVSLTCDVSGFYPSDIAVEWESDGQPENNYKTTPPVLDSDGSFFLYSKLTVDKSRWEQGDVFSCSVMHEALHNHYTQKSLSLSPGK
heavy 2: QVQLVQSGAEVKKPGASVKVSCKTSGYTFTEYTMHWVRQAPGQSLEWMGGIDPNNANTHYNQKFQGRVTITVDKSASTAYMELSSLRSEDTAVYYCARIYYFGRLYFDFWGAGTLVTVSSASTKGPSVFPLAPSSKSTSGGTAALGCLVKDYFPEPVTVSWNSGALTSGVHTFPAVLQSSGLYSLSSVVTVPSSSLGTQTYICNVNHKPSNTKVDKKVEPKSCGGGGSGGGGSQAVVTQEPSLTVSPGGTVTLTCGSSTGAVTTSNYANWVQQKPGKSPRGLIGGTNKRAPGVPARFSGSLLGGKAALTISGAQPEDEADYYCALWYSNHWVFGGGTKLTVLGKPGSGKPGSGKPGSGKPGSEVQLVESGGGLVQPGGSLRLSCAASGFTFSTYAMNWVRQAPGKGLEWVGRIRSKANNYATYYADSVKGRFTISRDDSKNTLYLQMNSLRAEDTAVYYCVRHGNFGDSYVSWFAYWGQGTLVTVSSGGGGSGGGGSKTHTCPPCPAPPVAGPSVFLFPPKPKDTLMISRTPEVTCVVVDVKHEDPEVKFNWYVDGVEVHNAKTKPREEQYNSTYRVVSVLTVLHQDWLNGKEYKCKVSNKALPAPIEKTISKAKGQPREPQVYTLPPSREQMTKNQVKLTCLVKGFYPSDIAVEWESNGQPENNYKTTPPVLDSDGSFFLYSKLTVDKSRWQQGNVFSCSVMHEALHNHYTQKSLSLSPGK
light: not shown
notes: copies: 1 + 1 + 2
- binding result (human CLDN6 [2]): binds

B4: XENP37231 (C6-30_H1.24_L1.187), 2+1 Fab2-scFv-Fc bsAb with CD3 High-Int #1 (bispecific antibody)
heavy 1: B2 heavy 1 with A56G, F102L
heavy 2: B2 heavy 2 with A56G, F102L
light: not shown
notes: copies: 1 + 1 + 2
- binding result (human CLDN6 [2]): binds

B5: XENP37233 (C6-30_H2.91_L1.187), 2+1 Fab2-scFv-Fc bsAb with CD3 High-Int #1 (bispecific antibody)
heavy 1: EVQLVQSGAEVKKPGESLRISCKTSGYTFTEYTMHWVRQMPGKSLEWMGGIDPNNFNTHYNQKFQGHVTISVDKSISTAYLQWSSLKASDTAMYYCARIYYFGRLYFDFWGAGTLVTVSSASTKGPSVFPLAPSSKSTSGGTAALGCLVKDYFPEPVTVSWNSGALTSGVHTFPAVLQSSGLYSLSSVVTVPSSSLGTQTYICNVNHKPSDTKVDKKVEPKSCDKTHTCPPCPAPPVAGPSVFLFPPKPKDTLMISRTPEVTCVVVDVKHEDPEVKFNWYVDGVEVHNAKTKPREEEYNSTYRVVSVLTVLHQDWLNGKEYKCKVSNKALPAPIEKTISKAKGQPREPQVYTLPPSREEMTKNQVSLTCDVSGFYPSDIAVEWESDGQPENNYKTTPPVLDSDGSFFLYSKLTVDKSRWEQGDVFSCSVMHEALHNHYTQKSLSLSPGK
heavy 2: EVQLVQSGAEVKKPGESLRISCKTSGYTFTEYTMHWVRQMPGKSLEWMGGIDPNNFNTHYNQKFQGHVTISVDKSISTAYLQWSSLKASDTAMYYCARIYYFGRLYFDFWGAGTLVTVSSASTKGPSVFPLAPSSKSTSGGTAALGCLVKDYFPEPVTVSWNSGALTSGVHTFPAVLQSSGLYSLSSVVTVPSSSLGTQTYICNVNHKPSNTKVDKKVEPKSCGGGGSGGGGSQAVVTQEPSLTVSPGGTVTLTCGSSTGAVTTSNYANWVQQKPGKSPRGLIGGTNKRAPGVPARFSGSLLGGKAALTISGAQPEDEADYYCALWYSNHWVFGGGTKLTVLGKPGSGKPGSGKPGSGKPGSEVQLVESGGGLVQPGGSLRLSCAASGFTFSTYAMNWVRQAPGKGLEWVGRIRSKANNYATYYADSVKGRFTISRDDSKNTLYLQMNSLRAEDTAVYYCVRHGNFGDSYVSWFAYWGQGTLVTVSSGGGGSGGGGSKTHTCPPCPAPPVAGPSVFLFPPKPKDTLMISRTPEVTCVVVDVKHEDPEVKFNWYVDGVEVHNAKTKPREEQYNSTYRVVSVLTVLHQDWLNGKEYKCKVSNKALPAPIEKTISKAKGQPREPQVYTLPPSREQMTKNQVKLTCLVKGFYPSDIAVEWESNGQPENNYKTTPPVLDSDGSFFLYSKLTVDKSRWQQGNVFSCSVMHEALHNHYTQKSLSLSPGK
light: not shown
notes: copies: 1 + 1 + 2
- binding result (human CLDN6 [2]): binds

Second part, the binder after the results:

- binding result (human CLDN17): no binding
- binding result (human CLDN5): no binding
- binding result (human CLDN8): no binding
- binding result (CLDN6 I143V isotype): binds
- binding result (mouse CLDN6): binds
- binding result (human CLDN6 [3]): binds
B3: XENP34229 (C6-30_H1L1 x CD3 bsAb in the 1+1 Fab-scFv-Fc format) (bispecific antibody)
heavy: B2 heavy 1 with A56G
scFv-Fc: QAVVTQEPSLTVSPGGTVTLTCGSSTGAVTTSNYANWVQQKPGKSPRGLIGGTNKRAPGVPARFSGSLLGGKAALTISGAQPEDEADYYCALWYSNHWVFGGGTKLTVLGKPGSGKPGSGKPGSGKPGSEVQLVESGGGLVQPGGSLRLSCAASGFTFSTYAMNWVRQAPGKGLEWVGRIRSKYNNYATYYADSVKGRFTISRDDSKNTLYLQMNSLRAEDTAVYYCVRHGNFGDSYVSWFAYWGQGTLVTVSSEPKSSDKTHTCPPCPAPPVAGPSVFLFPPKPKDTLMISRTPEVTCVVVDVKHEDPEVKFNWYVDGVEVHNAKTKPREEQYNSTYRVVSVLTVLHQDWLNGKEYKCKVSNKALPAPIEKTISKAKGQPREPQVYTLPPSREQMTKNQVKLTCLVKGFYPSDIAVEWESNGQPENNYKTTPPVLDSDGSFFLYSKLTVDKSRWQQGNVFSCSVMHEALHNHYTQKSLSLSPGK
light: not shown
notes: copies: 1 + 1 + 1

- binding result (human CLDN17): no binding
- binding result (human CLDN5): no binding
- binding result (human CLDN8): no binding
- binding result (CLDN6 I143V isotype): binds
- binding result (mouse CLDN6): binds
- binding result (human CLDN6 [3]): binds
B6: XENP34637 (C6-30_H2L1 x CD3 bsAb in the 1+1 Fab-scFv-Fc format) (bispecific antibody)
heavy: B5 heavy 1 with F56G
scFv-Fc: not shown
light: not shown
notes: copies: 1 + 1 + 1
